Laboratory results published in patent US20140120095A1 (Boehringer Ingelheim, published 2014).
Where two headings read alike, the source gives them in different places. One block for each binder: values may come before it.

What was measured:
[1] = target: T1, recombinant human VEGF165 (human, UniProt P15692-4 27-191, biotinylated in the competition assays); assay: SPR Biacore, hVEGF165
T1 construct: Bought protein; also called hVEGF165; rhVEGF165
Protocol: (§1) Samples are injected for 2 min and allowed to dissociate up to 20 min at a flow rate of 45 μl/min. In between sample injections, the chip surface is regenerated with 100 mM HCl. HBS-EP+(Hepes buffer pH7.4+EDTA) is used as running buffer. Binding curves are fitted using a Two State Reaction model by Biacore T100 Evaluation Software v2.0.1.

[2] = target: T1, recombinant human VEGF165; assay: SPR Biacore, VEGF165
[3] = target: T2, VEGF (used to stimulate HUVEC cells) (UniProt P15692-4 27-191, limits assumed); assay: cell-based or functional assay
[4] = target: T1, recombinant human VEGF165; assay: AlphaScreen, hVEGF165/hVEGFR2-Fc competition
[5] = target: T1, recombinant human VEGF165; assay: AlphaScreen, hVEGF165/hVEGFR1-Fc competition, -HSA
[6] = target: T1, recombinant human VEGF165; assay: AlphaScreen, hVEGF165/hVEGFR2-Fc competition, +5 uM HSA
[7] = target: T1, recombinant human VEGF165; assay: AlphaScreen, hVEGF165/hVEGFR2-Fc competition, -HSA
[8] = target: T3, recombinant human DLL4 (human, UniProt Q9NR61 25-522); assay: AlphaScreen biot-hDLL4/hNotch1-Fc, periplasmic extract
T3 construct: also called rhDLL4; hDLL4

[9] = target: T3, recombinant human DLL4; assay: Biacore off-rate, periplasmic extract; heterogeneous fit, fast off-rate
[10] = target: T3, recombinant human DLL4; assay: binding ELISA, coated rhDLL4
Protocol: (§2) In order to determine cross-reactivity to mouse DII4 a binding ELISA is performed. […] Wells are blocked with a casein solution (1% in PBS). VHHs are applied as dilution series and binding is detected using a mouse anti-myc (Roche) and an anti-mouse-AP conjugate (Sigma, St Louis, Mo., USA) (FIG. 7 A-H). As reference, binding to human DII4 is measured.

[11] = target: T3, recombinant human DLL4; assay: Biacore off-rate, periplasmic extract; heterogeneous fit, slow off-rate
[12] = target: T3, recombinant human DLL4; assay: hDLL4 ELISA screen, periplasmic extract
[13] = target: T1, recombinant human VEGF165; assay: AlphaScreen, hVEGF165/hVEGFR2-Fc competition; remark: listed apart in the source
Protocol: (§3) Finally, streptavidin donor beads (20 μg/ml) are added and after 1 hour of incubation in the dark, fluorescence is measured on the Envision microplate reader.
Target sequence in this assay (P15692 other isoform, or with tags, fused parts or gaps): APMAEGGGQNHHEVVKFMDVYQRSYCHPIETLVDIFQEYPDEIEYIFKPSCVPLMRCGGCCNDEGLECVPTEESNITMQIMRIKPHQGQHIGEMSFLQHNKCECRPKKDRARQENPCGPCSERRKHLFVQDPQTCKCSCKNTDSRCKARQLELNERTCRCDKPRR

[14] = target: T1, recombinant human VEGF165; assay: binding ELISA, coated rhVEGF165
Target sequence in this assay (P15692 other isoform, or with tags, fused parts or gaps): as above

[15] = target: T1, recombinant human VEGF165; assay: AlphaScreen, hVEGF165/hVEGFR1-Fc competition
Protocol: as §3
Target sequence in this assay (P15692 other isoform, or with tags, fused parts or gaps): as above

[16] = target: T1, recombinant human VEGF165; assay: ELISA, hVEGF165/hVEGFR1-Fc competition; set-up: % inhibition: concentration or dose not given beside the values
Target sequence in this assay (P15692 other isoform, or with tags, fused parts or gaps): as above

[17] = target: T1, recombinant human VEGF165; assay: AlphaScreen, hVEGF165/hVEGFR2-Fc competition; set-up: % inhibition: concentration or dose not given beside the values
Protocol: as §3

[18] = target: T1, recombinant human VEGF165; assay: AlphaScreen, hVEGF165/hVEGFR1-Fc competition; set-up: % inhibition: concentration or dose not given beside the values
Protocol: as §3
Target sequence in this assay (P15692 other isoform, or with tags, fused parts or gaps): as above

[19] = target: T4, recombinant mouse VEGF164 (mouse, UniProt Q00731-2 27-190, biotinylated as the labelled ligand of the mVEGF164/mVEGFR2 AlphaScreen); assay: binding ELISA, coated rmVEGF164
T4 construct: also called mVEGF164; rmVEGF164
T4 sequence (looked up): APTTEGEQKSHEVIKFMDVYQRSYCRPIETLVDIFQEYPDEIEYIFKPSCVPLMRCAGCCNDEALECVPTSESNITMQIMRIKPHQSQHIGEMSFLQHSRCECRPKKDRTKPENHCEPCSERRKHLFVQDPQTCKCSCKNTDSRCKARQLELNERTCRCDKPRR
Protocol: Cross-reactivity to mouse VEGF164 is determined using a binding ELISA. […] Wells are blocked with a casein solution (1% in PBS). […] A mouse VEGF164 reactive mAb is included as positive control.

[20] = target: T2, VEGF (used to stimulate HUVEC cells); assay: cell-based or functional assay; remark: listed apart in the source
Target sequence in this assay (P15692 other isoform, or with tags, fused parts or gaps limits assumed): as the sequence (P15692 other isoform, or with tags, fused parts or gaps) above

[21] = target: T2, VEGF (used to stimulate HUVEC cells); assay: cell-based or functional assay; remark: listed apart in the source
Target sequence in this assay (P15692 other isoform, or with tags, fused parts or gaps limits assumed): as the sequence (P15692 other isoform, or with tags, fused parts or gaps) above

[22] = target: T1, recombinant human VEGF165; assay: SPR Biacore, immobilised hVEGF165, two state reaction model
Protocol: as §1
Target sequence in this assay (P15692 other isoform, or with tags, fused parts or gaps): as the sequence (P15692 other isoform, or with tags, fused parts or gaps) above

^{(a)}KD = kd1/kₐ₁ * (kd2/(kd2 + kₐ₂)) ^{(b)}Curves are fitted using a Two State Reaction model by Biacore T100 Evaluation Software v2.0.1

[23] = target: T1, recombinant human VEGF165; assay: ELISA, hVEGF165/hVEGFR2-Fc competition; set-up: % inhibition: concentration or dose not given beside the values
[24] = target: T3, recombinant human DLL4; assay: competition AlphaScreen, biot-hDLL4/hNotch1-Fc; partial inhibitor
[25] = target: T5, human Jagged-1 (human, UniProt P78504 34-1067, limits assumed); assay: binding ELISA on coated recombinant human Jagged-1, OD 405 nm
T5 construct: also called hJagged-1; hJAG1
Method in brief: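 Plates coated overnight at 4° C with 1 μg/mL ligand, blocked with 1% casein in PBS. VHH dilution series applied; bound VHH detected via mouse anti-myc then anti-mouse-AP conjugate.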

[26] = target: T6, human DLL1 (human, UniProt O00548 18-545, limits assumed); assay: binding ELISA on coated recombinant human DLL1, OD 405 nm
T6 construct: also called hDLL1
T6 sequence (looked up): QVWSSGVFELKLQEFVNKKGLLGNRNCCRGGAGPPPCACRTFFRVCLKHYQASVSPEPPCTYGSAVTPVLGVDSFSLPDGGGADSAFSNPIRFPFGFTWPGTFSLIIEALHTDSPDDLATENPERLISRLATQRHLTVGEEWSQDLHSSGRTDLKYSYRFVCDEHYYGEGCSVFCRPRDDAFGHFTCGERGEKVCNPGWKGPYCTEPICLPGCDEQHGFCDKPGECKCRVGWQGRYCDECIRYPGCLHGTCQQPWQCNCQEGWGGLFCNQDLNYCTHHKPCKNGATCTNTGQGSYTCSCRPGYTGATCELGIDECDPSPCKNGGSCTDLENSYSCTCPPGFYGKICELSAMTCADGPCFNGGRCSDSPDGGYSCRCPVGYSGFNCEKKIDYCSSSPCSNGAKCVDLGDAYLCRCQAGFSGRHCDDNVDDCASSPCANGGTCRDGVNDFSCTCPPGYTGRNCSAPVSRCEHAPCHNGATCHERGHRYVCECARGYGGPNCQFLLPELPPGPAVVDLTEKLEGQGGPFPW
Protocol: Absence of binding to homologous ligands human DLL1 and human Jagged-1 is assessed via solid phase binding assay (ELISA). In brief, human DLL1 (Alexis, San Diego, Calif., USA) and human Jagged-1 (Alexis, San Diego, Calif., USA) are coated overnight at 4° C. at 1 μg/mL in a 96-well MaxiSorp plate (Nunc, Wiesbaden, Germany). Wells are blocked with a casein solution (1% in PBS). VHHs are applied as dilution series and binding is detected using a mouse anti-myc (Roche) and an anti-mouse-AP conjugate (Sigma, St. Louis, Mo., USA).

[27] = target: T7, recombinant mouse DLL4 (mouse, UniProt Q9JI71 27-532); assay: binding ELISA on coated recombinant mouse DLL4, OD 405 nm
T7 construct: extracellular domain; also called rmDLL4; mDLL4
Protocol: as §2

T3 sequence (Q9NR61 25-522): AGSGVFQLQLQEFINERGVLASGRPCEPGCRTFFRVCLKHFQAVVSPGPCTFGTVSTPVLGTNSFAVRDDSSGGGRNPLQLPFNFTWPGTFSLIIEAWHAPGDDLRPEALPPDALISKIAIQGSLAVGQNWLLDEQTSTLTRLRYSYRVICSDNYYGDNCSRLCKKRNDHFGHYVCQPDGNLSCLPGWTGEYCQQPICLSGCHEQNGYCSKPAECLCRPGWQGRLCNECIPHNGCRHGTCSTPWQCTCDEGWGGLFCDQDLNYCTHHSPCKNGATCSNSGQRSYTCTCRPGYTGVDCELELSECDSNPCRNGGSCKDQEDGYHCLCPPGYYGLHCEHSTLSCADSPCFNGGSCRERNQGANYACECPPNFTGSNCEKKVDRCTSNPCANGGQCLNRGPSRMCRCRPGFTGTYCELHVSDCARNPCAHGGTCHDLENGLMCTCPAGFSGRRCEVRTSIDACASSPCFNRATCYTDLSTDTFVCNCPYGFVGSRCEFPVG
T7 sequence (Q9JI71 27-532): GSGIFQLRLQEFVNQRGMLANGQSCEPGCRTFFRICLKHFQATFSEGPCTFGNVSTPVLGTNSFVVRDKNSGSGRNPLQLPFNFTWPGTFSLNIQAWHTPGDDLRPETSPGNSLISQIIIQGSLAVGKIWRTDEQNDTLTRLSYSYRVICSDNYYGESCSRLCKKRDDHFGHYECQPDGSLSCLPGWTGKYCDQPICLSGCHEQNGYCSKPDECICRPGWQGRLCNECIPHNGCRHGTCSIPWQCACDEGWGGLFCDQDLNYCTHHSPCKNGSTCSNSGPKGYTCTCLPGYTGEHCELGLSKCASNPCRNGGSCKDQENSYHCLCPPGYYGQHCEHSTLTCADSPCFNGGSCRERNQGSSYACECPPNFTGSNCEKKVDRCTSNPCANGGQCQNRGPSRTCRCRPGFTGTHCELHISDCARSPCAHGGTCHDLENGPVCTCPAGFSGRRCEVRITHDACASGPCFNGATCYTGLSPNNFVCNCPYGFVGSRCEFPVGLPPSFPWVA

B4: DLLBII17F10 (VHH)
VHH: EVQLVESGGGLVQAGGSLRLSCASSGRTLLNYAMGWFRQAPGKEREFVSGINWSGGSTYYADSVKGRFTISRDNAENTVYLHMNSLKPEDTAVYYCAAAHDNYWFTDDSLGRGLKYWGQGTQVTVSS
% inh [8]: 88%
koff [9]: 0.0011 s⁻¹
EC50 [10]: 0.9 nM
koff [11]: 0.00031 s⁻¹
% inh [12]: 98%

B5: DLLBII17B03 (VHH)
VHH: EVQLVESGGGLVQPGGSLRLSCAASGFTFENYALGWFRQAPGKEREWVSCISSSDGTTYYADSVKGRFTISRDNVKNTVYLQMNRLKPEDTAIYYCALSLGSSWCAYDYWGQGTQVTVSS
% inh [8]: 77%
koff [9]: 0.0012 s⁻¹
koff [11]: 0.00022 s⁻¹
% inh [12]: 76%

B6: VEGFBII021 (VHH, not shown: small tags and cut ends)
chain: EVQLVESGGGLVQTGDSLRLSCEVSGRTFSSYSMGWFRQAQGKEREFVVAISKGGYKYDSVSLEGRFTISKDNAKNTVYLQINSLKPEDTAVYYCASSRAYGSSRLRLADTYEYWGQGTQVTVSSGGGGSGGGGSGGGGSGGGGSGGGGSGGGGSGGGGSGGGGSEVQLVESGGGLVQPGGSLRLSCVASGIRFMSMAWYRQAPGKHRELVARISSGGTTAYVDSVKGRFTISRDNSKNTVYLQMNSLKAEDTAVYYCNTFSSRPNPWGAGTQVTVSS
notes: Bivalent (heterodimeric) anti-VEGF VHH; also called VEGFBII23B04-40GS-5B05
IC50 [13]: 0.009 nM
EC50 [14]: 0.334 nM
% inhibition [15]: 100%
IC50 [15]: 0.016 nM
% inhibition [16]: 97%
IC50 [16]: 0.254 nM
% inhibition [17]: 100%
IC50 [17]: 0.007 nM
% inhibition [18]: 100%
IC50 [18]: 0.012 nM
EC50 [19]: 0.502 nM
% inhibition, VEGF HUVEC Erk phosphorylation assay [20]: 103%
IC50, VEGF HUVEC Erk phosphorylation assay [20]: 0.21 nM
% inhibition, VEGF HUVEC proliferation assay [21]: 98%
IC50, VEGF HUVEC proliferation assay [21]: 0.4 nM
Kd [22]: 0.07 nM
ka1 [22]: 1.2e+06 M⁻¹ s⁻¹
ka2 [22]: 0.023 s⁻¹
kd1 [22]: 0.011 s⁻¹
kd2 [22]: 0.00019 s⁻¹
% inhibition [23]: 100%
IC50 [23]: 0.204 nM

B7: DLLBII08C11 (VHH)
VHH: EVQLVESGGGLVQAGGSLRLSCAASGFTFDDYAIGWFRQAPGKEREGVSCISSHDRTTYYADSVKGRFTISSDNAKNTVYLQMNSLKPEDTAVYYCAADPLVCGYNDPRLADYWGQGTQVTVSS
notes: also called DLLBII8C11
IC50 [24]: 0.7 nM
binding result [25]: no binding (tested: 2.5e-7 M)
binding result [26]: no binding (tested: 2.5e-7 M)
EC50 [10]: 1.1 nM
% inh [12]: 57%
binding result [27]: no binding (tested: 2.5e-7 M)

Next, values leading:

Kd [1]: 44 nM
B1: VEGFBII032 (VHH)
VHH: EVQLVESGGGLVQPGGSLRLSCAASGIRFISMAWYRQAPGKQRELVARISSGGTTAYADSVKGRFTISRDNSKNTVYLQMNSLRAEDTAVYYCNTFSSRPNPWGQGTLVTVSS
notes: also called VEGFBII0032

Kd [2]: 0.27 nM
% inhibition, VEGF HUVEC proliferation assay [3]: 78%
IC50, VEGF HUVEC proliferation assay [3]: 1.54 nM
% inhibition [4]: 100%
IC50 [4]: 0.3 nM
B2: VEGFBII037 (VHH)
VHH: DVQLVESGGGLVQPGGSLRLSCAASGRTFSSYSMGWFRQAPGKEREFVVAISKGGYKYDAVSLEGRFTISRDNAKNTVYLQMNSLRPEDTAVYYCASSRAYGSSRLRLADTYEYWGQGTLVTVSS
notes: also called VEGFBII0037

% inh [5]: 50%
IC50 [5]: 0.2 nM
IC50 [6]: 0.1 nM
Kd [2]: 0.36 nM
% inhibition, VEGF HUVEC proliferation assay [3]: 92%
IC50, VEGF HUVEC proliferation assay [3]: 0.6 nM
% inhibition [4]: 100%
IC50 [4]: 0.143 nM
% inh [7]: 100%
IC50 [7]: 0.2 nM
B3: VEGFBII038 (VHH)
VHH: DVQLVESGGGLVQPGGSLRLSCAASGRTFSSYSMGWFRQAPGKEREFVVAISKGGYKYDAVSLEGRFTISRDNAKNTVYLQINSLRPEDTAVYYCASSRAYGSSRLRLADTYEYWGQGTLVTVSS
notes: also called VEGFBII0038
